Results on two molecules are retold here after patent US7592006 (UNIVERSIT CATHOLIQUE DE LOUVAIN, dated 2009).

Assay [1] addresses T1, human CD2 (human, UniProt P06729 25-351).
T1 construct: whole, on cells; The plasmid is cited from Peterson and Seed, Nature 1987; also called CD2 antigen; wild-type CD2
T1 sequence (looked up): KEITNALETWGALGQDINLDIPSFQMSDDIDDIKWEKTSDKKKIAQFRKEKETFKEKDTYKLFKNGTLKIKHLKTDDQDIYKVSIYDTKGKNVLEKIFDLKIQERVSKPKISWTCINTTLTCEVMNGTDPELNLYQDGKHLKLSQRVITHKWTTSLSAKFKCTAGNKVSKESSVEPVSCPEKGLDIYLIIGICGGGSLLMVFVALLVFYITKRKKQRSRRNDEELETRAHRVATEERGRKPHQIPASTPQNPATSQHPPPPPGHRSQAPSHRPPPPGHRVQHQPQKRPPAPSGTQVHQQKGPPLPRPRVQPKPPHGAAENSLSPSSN
As to the kind of experiment: two color flow cytometry on human PBMC, biotinylated LO-CD2a and Leu-5bPE; upper left quadrant taken as Leu-5b-PE positive, LO-CD2a below the quadrant limit (axes inferred: X = FL1 LO-CD2a, Y = FL2 Leu-5b-PE).

Assay [2] addresses T1, human CD2. As to the kind of experiment: two color flow cytometry on human PBMC, biotinylated LO-CD2a and Leu-5bPE; Y axis (FL2) taken as Leu-5b-PE, inferred.
Assay [3] deals with T1, human CD2. As to the kind of experiment: flow cytometry on CD2-expressing Jurkat cells, 0 to 4 µg/ml antibody (FIG. 35). The protocol: Transient expression in COS cells and detection of secreted antibody were carried out as described previously for the chimeric antibody. The humanized antibody was purified by affinity chromatography (Protein A). […] The Jurkat cell line, which expresses CD2, was stained with rat LO-CD2a, the humanized LO-CD2a (LO-CD2aHu), or rat IgG2b or human IgG controls. Antibody concentrations ranged from 0 to 4 ig/ml. […] Bound antibodies were detected with an isotype-specific FITC-conjugated antisera. The results shown in FIG. 35 are expressed as the percentage of cells positively stained by the antibodies over the range of concentrations mentioned hereinabove. Functional studies indicate that the humanized antibody is also capable of inhibiting a primary MLR. Nanogram quantities of LO-CD2a, LO-CD2aHu, rat IgG2b control, or human IgG1 control were added to culture wells containing equivalent numbers of human peripheral blood mononuclear cells (PBMC) from a designated responder and stimulator (irradiated cells). Control wells contained no antibody. The cultures were incubated for 5 days, then pulsed overnight with tritiated thymidine. (3HT). Proliferation is detected by the uptake of 3HT. The results, as given in Table 3 below, are expressed as the mean CPM as recorded by a Beta plate reader.

Regarding “Leu-5b, mouse anti-human CD2 monoclonal antibody (Becton Dickinson)”, the % GATED (quadrant 1UL) in the assay with human CD2 [1] stood at 23.2%. In the assay with human CD2 [2], this molecule had a Y MEAN fluorescence (quadrant 1UL) of 285, a Y MEAN fluorescence (quadrant 2UR) of 631 and a Y MEAN fluorescence (quadrant 4LR) of 6.54.

B1: humanized LO-CD2a (antibody, V domains shown)
VH: QVQLVQSGAEVKKPGASVKVSCKASGYTFTEYYMYWVRQAPGQGLELMGRIDPEDGSIDYVEKFKKKVTLTADTSSSTAYMELSSLTSDDTAVYYCARGKFNYRFAYWGQGTLVTVSS
VL: DVVMTQSPPSLLVTLGQPASISCRSSQSLLHSSGNTYLNWLLQRPGQSPQPLIYLVSKLESGVPDRFSGSGSGTDFTLKISGVEAEDVGVYYCMQFTHYPYTFGQGTKLEIK
notes: Variable regions were cloned into the MRC light (human kappa) and heavy (human gamma 1) chain vectors; Expressed in COS cells and purified on Protein A; also called LO-CD2aHu; humanized antibody
With B1, in the assay with human CD2 [3], the binding result is recorded as “binds”.
